The conditions of the series: Bacillus amyloliquefaciens, pH 6.3, 25 °C, Fluorescence, MES 450 mM, reversible: yes, whole UniProt chain shown.

The results in this text go back to FireProtDB (doi:10.1021/bi00067a022).

B1: Ribonuclease wild type, P00648 (protein)
chain: MMKMEGIALKKRLSWISVCLLVLVSAAGMLFSTAAKTETSSHKAHTEAQVINTFDGVADYLQTYHKLPDNYITKSEAQALGWVASKGNLADVAPGKSIGGDIFSNREGKLPGKSGRTWREADINYTSGFRNSDRILYSSDWLIYKTTDHYQTFTKIR
Consider B1, for which, under “GdnHCl”, the denaturant m value stood at 4.4 kcal/mol/M, the “denaturant midpoint (higher = more stable)” value was 2 M and the unfolding free energy was determined as 8.8 kcal/mol. In addition, where the note is “Urea”, the denaturant m value was determined as 1.92 kcal/mol/M, the “denaturant midpoint (higher = more stable)” value is 4.58 M and the unfolding free energy was 8.79 kcal/mol.
